Measured values published in article PMC5139991, “SEC-SANS: size exclusion chromatography combined in situ with small-angle neutron scattering1” (Journal of Applied Crystallography, 2016).

Target: the molecule itself
Test: AUC; ultracentrifugation of Sir2a; no details given (to be detailed in a later publication)

B1: Plasmodium falciparum Sir2a (enzyme, UniProt Q8IE47 1-273, looked up)
chain: MGNLMISFLKKDTQSITLEELAKIIKKCKHVVALTGSGTSAESNIPSFRGSSNSIWSKYDPRIYGTIWGFWKYPEKIWEVIRDISSDYEIEINNGHVALSTLESLGYLKSVVTQNVDGLHEASGNTKVISLHGNVFEAVCCTCNKIVKLNKIMLQKTSHFMHQLPPECPCGGIFKPNIILFGEVVSSDLLKEAEEEIAKCDLLLVIGTSSTVSTATNLCHFACKKKKKIVEINISKTYITNKMSDYHVCAKFSELTKVANILKGSSEKNKKIM
notes: Sir2a of Plasmodium falciparum, codon-optimized gene PF3D7_1328800 cloned into pET-28a; printed size 34 kDa; Protonated protein; The His tag is inferred from pET-28a and the TALON purification; removal of the tag is not mentioned; source: E. coli BL21 DE3, purified (HiTrap TALON, gel filtration)
  stoichiometry N: 3
